Measured values: article PMC12548092, “Exploring Helical Fraying Linked to Dynamics and Catalysis in Adenylate Kinase” (Biochemistry, 2025)

Substrate: Nc1ncnc2c1ncn2[C@@H]1O[C@H](COP(=O)(O)OP(=O)(O)OP(=O)(O)O)[C@@H](O)[C@H]1O
Test: purified protein
Settings: varied substrate not named in table (text: substrates ATP and AMP)

B1: AKeco (Escherichia coli K-12; K47A) (protein)
chain: MRIILLGAPGAGKGTQAQFIMEKYGIPQISTGDMLRAAVKSGSELGAQAKDIMDAGKLVTDELVIALVKERIAQEDCRNGFLLDGFPRTIPQADAMKEAGINVDYVLEFDVPDELIVDRIVGRRVHAPSGRVYHVKFNPPKVEGKDDVTGEELTTRKDDQEETVRKRLVEYHQMTAPLIGYYSKEAEAGNTKYAKVDGTKPVAEVRADLEKILG
  Km: 116 ± 8 µM
  kcat: 464 s⁻¹
  kcat/Km: 4e+06 M⁻¹ s⁻¹
